Measured values taken from US20180148503A1 (Memorial Sloan Kettering, published 2018).

What was measured:
[1] = molecular target: T1, PRA300-309 (…) / HLA-A*0201 complex (human); assay: method not stated; told in the ADCC example with PRAME+/HLA-A*02:01+ leukemia cells; lower end of the printed range 3-4 nM
T1 construct: also called PRAME300; PRAME P300

[2] = molecular target: T1, PRA300-309 (…) / HLA-A*0201 complex; assay: cell-based or functional assay
[3] = molecular target: T1, PRA300-309 (…) / HLA-A*0201 complex; assay: method not stated; told in the ADCC example with PRAME+/HLA-A*02:01+ leukemia cells; upper end of the printed range 3-4 nM
[4] = molecular target: T2, 009-mut6 (…) / HLA-A*0201 complex on T2 cells (human); assay: flow cytometry, APC-Pr300#20 at 3 µg/ml on peptide-pulsed T2 cells; the sheet gives 324 for T2 alone and 68351 for Pr300
T2 construct: also called EXT009-mut6

[5] = molecular target: T3, 009-mut3 (…) / HLA-A*0201 complex on T2 cells (human); assay: as above
T3 construct: also called EXT009-mut3; Pr302A

[6] = molecular target: T4, 009-mut8 (…) / HLA-A*0201 complex on T2 cells (human); assay: as above
T4 construct: also called EXT009-mut8

[7] = molecular target: T5, 009-mut4 (…) / HLA-A*0201 complex on T2 cells (human); assay: as above
T5 construct: also called EXT009-mut4

[8] = molecular target: T6, 009-mut7 (…) / HLA-A*0201 complex on T2 cells (human); assay: as above
T6 construct: also called EXT009-mut7; Pr306A

[9] = molecular target: T7, 009-mut9 (…) / HLA-A*0201 complex on T2 cells (human); assay: as above
T7 construct: also called EXT009-mut9

[10] = molecular target: T8, 009-mut5 (…) / HLA-A*0201 complex on T2 cells (human); assay: as above
T8 construct: also called EXT009-mut5

[11] = molecular target: T9, HLA-A*0201 on T2 cells without added peptide (human); assay: flow cytometry, Prame20 mAb on T2 cells without peptide; axis without numbers
T9 construct: Background target (T2 cells with no peptide pulsed); also used as the HLA-A*02 partner of the peptide in the stabilisation read-out; also called T2 cells alone; unpulsed T2 cells

[12] = molecular target: T2, 009-mut6 (…) / HLA-A*0201 complex on T2 …; assay: phage FACS on peptide-loaded T2 cells
[13] = molecular target: T10, 009-AAAA (…) / HLA-A*0201 complex on T2 cells (human); assay: phage FACS on peptide-loaded T2 cells
T10 construct: Control peptide with alanines at positions 4-7; also called EXT009-AAAA; 009-AAAA (position 4-7)

[14] = molecular target: T11, 009-mut10 (…) / HLA-A*0201 complex on T2 cells (human); assay: phage FACS on peptide-loaded T2 cells
T11 construct: Alanine variant at peptide position 10

[15] = molecular target: T3, 009-mut3 (…) / HLA-A*0201 complex on T2 …; assay: phage FACS on peptide-loaded T2 cells
[16] = molecular target: T4, 009-mut8 (…) / HLA-A*0201 complex on T2 …; assay: phage FACS on peptide-loaded T2 cells
[17] = molecular target: T12, 009-mut2 (…) / HLA-A*0201 complex on T2 cells (human); assay: phage FACS on peptide-loaded T2 cells
T12 construct: also called EXT009-mut2

[18] = molecular target: T5, 009-mut4 (…) / HLA-A*0201 complex on T2 …; assay: phage FACS on peptide-loaded T2 cells
[19] = molecular target: T6, 009-mut7 (…) / HLA-A*0201 complex on T2 …; assay: phage FACS on peptide-loaded T2 cells
[20] = molecular target: T7, 009-mut9 (…) / HLA-A*0201 complex on T2 …; assay: phage FACS on peptide-loaded T2 cells
[21] = molecular target: T8, 009-mut5 (…) / HLA-A*0201 complex on T2 …; assay: phage FACS on peptide-loaded T2 cells
[22] = molecular target: T1, PRA300-309 (…) / HLA-A*0201 complex; assay: phage FACS on peptide-loaded T2 cells
[23] = molecular target: T10, 009-AAAA (…) / HLA-A*0201 complex on T2 …; assay: phage FACS on peptide-loaded T2 cells; remark: listed apart in the source
[24] = molecular target: T9, HLA-A*0201 on T2 cells without added …; assay: phage FACS on T2 cells without peptide
[25] = molecular target: T9, HLA-A*0201 on T2 cells without added …; assay: T2 stabilisation: surface HLA-A*02 level after pulsing with 50 µg/mL peptide, flow cytometry; the staining antibody is not named for this panel
[26] = molecular target: T13, PRA435-443 (…) / HLA-A*0201 complex (human); assay: flow cytometry on tumor cell lines
T13 construct: also called PRAME P435

B1: Pr300#20-MAGE (antibody, V domains shown)
VH: QVQLVQSGAEVRKPGASVKVSCKASGGTFSSYAISWVRQAPGQGLEWMGRIIPILGIANYAQKFQGRVTITADKSTSTAYMELSSLRSEDTAVYYCARHYGQWWDYWGQGTLVTVSS
VL: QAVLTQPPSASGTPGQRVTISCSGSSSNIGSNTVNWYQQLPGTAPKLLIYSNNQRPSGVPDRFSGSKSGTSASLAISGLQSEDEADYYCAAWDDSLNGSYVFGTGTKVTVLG
modifications: modified afucosylated Fc
notes: also called Pr#20-Fc enhanced; Pr20M
**Q.** For B1, which Kd [1] is on record?
**A.** The Kd was at least 3 nM.

**Q.** And the “EC50 (ADCC, 51Cr release, human PBMC effectors, E:T 50:1)” value [2]?
**A.** The value was 2 to 3 nM.

**Q.** And the Kd [3]?
**A.** Its Kd is at most 4 nM.

B2: Pr300#20 human IgG1 antibody (antibody, V domains shown)
VH: QVQLVQSGAEVRKPGASVKVSCKASGGTFSSYAISWVRQAPGQGLEWMGRIIPILGIANYAQKFQGRVTITADKSTSTAYMELSSLRSEDTAVYYCARHYGQWWDYWGQGTLVTVSS
VL: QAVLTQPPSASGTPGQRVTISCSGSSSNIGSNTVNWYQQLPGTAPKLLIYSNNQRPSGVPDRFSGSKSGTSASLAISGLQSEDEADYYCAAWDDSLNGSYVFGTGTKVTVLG
notes: Full-length human IgG1 with matching human lambda constant region; Used APC-conjugated in flow cytometry; also called Pr#20; PR#20
**Q.** What does the source list for B2?
**A.** Median: APC-A [4]: 28600; Median: APC-A [5]: 18900; Median: APC-A [6]: 10900; Median: APC-A [7]: 72800; Median: APC-A [8]: 41500; Median: APC-A [9]: 730; Median: APC-A [10]: 6240; binding result [11]: no binding

B3: EXT009-17 phage (scFv phage clone) (scFv)
scFv: QSVLTQPPSVSGAPGQRVTISCTGSSSNIGAGFDVHWYQQLPGTAPKLLIFGNSNRPSGVPDRFSGSKSGTSASLAITGLQAEDEADYYCQSYDSSLSGYVFGSGTKVTVLGSRGGGGSGGGGSGGGGSLEMAEVQLVESGAEVKKPGSSVKVSCKASGGTFSSYAISWVRQAPGQGLEWMGRIIPIFGIANYAQKFQGRVTITADKSTSTAYMELSSLRSEDTAVYYCARSMWYMDSWGQGTLVTVSS
**Q.** What does the source list for B3?
**A.** MFI [12]: 23800; MFI [13]: 85.7; MFI [14]: 146; MFI [15]: 95.5; MFI [16]: 96.1; MFI [17]: 82; MFI [18]: 7510; MFI [19]: 82.1; MFI [20]: 79.7; MFI [21]: 85.1; MFI [22]: 19400; binding result [23]: no binding; MFI [24]: 82.8

B4: PRA300-309 peptide (ALYVDSLFFL) (peptide)
peptide: ALYVDSLFFL
notes: also called pr300 peptide; PRAME300 peptide
**Q.** Does B4 bind [25]?
**A.** Result: binds

B5: EXT009-8 phage (scFv phage clone) (scFv)
scFv: QSVVTQPPAVSGALGQRVTISCTGTTSNIGAGFDVHWYQQRPGAAPKLLISGNTHRPSGVPDRISGSKSGTLASLAITGLQAEDEADYYCQSYDRSLSTILFGGGTKLTVLGSRGGGGSGGGGSGGGGSLEMAQVQLVQSGAEVKKPGSSVKVSCKASGGTFSSHPISWVRQAPGQGLEWMGRIIPMLDIPNNAQKFQGRVTITADKSTDTAYLELSSLTSEDTAVYYCARGLYYYDYWGQGTLVTVSS
notes: also called EXT009-08
**Q.** Which results are given for B5?
**A.** MFI [12]: 3830; MFI [13]: 86.3; MFI [14]: 83.2; MFI [15]: 88.2; MFI [16]: 82.5; MFI [17]: 83.3; MFI [18]: 87.6; MFI [19]: 83.1; MFI [20]: 83.2; MFI [21]: 138; MFI [22]: 1360; binding result [23]: no binding; MFI [24]: 85.9

B6: Pr435#12 antibody (antibody, V domains shown)
VH: EVQLVESGAEVKKPGSSVKVSCKASGGTFSSYAISWVRQAPGQGLEWMGRIIPILGIANYAQKFQGRVTITADKSTSTAYMELSSLRSEDTAVYYCARQGYVWSEMDFWGQGTLVTVSS
VL: LLPVLTQPPSVSVAPGKTARITCGGNNIGSKSVHWYQQKPGQAPVLVIYYDSDRPSGIPERFSGSNSGNTATLTISRVEAGDEADYYCQVWDSITDHYVFGTGTKVTVLG
notes: also called Pr4350#12
**Q.** Does B6 bind [26]?
**A.** Result: binds

B7: Pr435#37 antibody (antibody, V domains shown)
VH: EVQLVESGAEVKKPGASVKVSCKASGYTFTSYYMHWVRQAPGQGLEWMGIINPSGGSTSYAQKFQGRVTMTRDTSTSTVYMELSSLRSEDTAVYYCAAGSYYSLDIWGQGTMVTVSS
VL: LLPVLTQPHSVSESPGKTVTISCTGSSGSIASNFVQWYQQRPGSAPTTVIYDDNQRPSGVPDRFSASIDRSSNSASLTISGLKTDDEADYYCQSYDGSNVIFGGGTKLTVLG
notes: also called Pr4350#37
**Q.** Does B7 bind [26]?
**A.** Result: binds
